The data set in a line: protein stability index of a GFP-peptide fusion (GPS, HEK-293T) (PSI 1-6); higher = more stable. To be noted: c terminus: a fixed tail appended.

± gives the standard deviation.
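Further: 24-mer peptide tiles fused after GFP, lentivirally expressed, FACS-sorted into six equal bins by GFP/DsRed ratio, decoded by Illumina sequencing, PSI is the read-weighted mean bin number.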

As to TSFQWVTKWVDYSNKYGFGYQLSD [PLK2], the protein stability index amounted to 2.06 ± 0.57 (treatment: DMSO) and 2.08 ± 0.31 (treatment: MLN4924 1 uM, 8 h).
TSGVVFTGLMVSLLCLLHFSIVSV [RTN2]: the protein stability index by setting is: (treatment: DMSO) 3 ± 0.53; (treatment: MLN4924 1 uM, 8 h) 3.07 ± 0.24.
The matching figures for TSPVLPSLIQLLGRNFILFIIFGT [HACD3]: 3.11 ± 0.48 and 2.98 ± 0.4.
Regarding TSRWSSMEIMEAYSVARQFNLTPP [KCNAB2], the protein stability index is, setting by setting: (treatment: DMSO) 2.57 ± 0.22; (treatment: MLN4924 1 uM, 8 h) 2.84 ± 0.084.
The matching figures for TSTGSAASSGSNSSASSEQGLLGR [SPRY1]: 5.07 ± 0.28 and 5.17 ± 0.099.
For the sequence TTPSTSSSSSFDPSVFDGLGDLLM [SNAP91], the protein stability index reads like this: (treatment: DMSO) 3.32 ± 0.21; (treatment: MLN4924 1 uM, 8 h) 3.48 ± 0.28.
TVIHDFLFSLKESPEKFQIEANFP [FAF2]: the protein stability index came to 2.14 ± 0.37 (treatment: DMSO) and 2.03 ± 0.19 (treatment: MLN4924 1 uM, 8 h).
The sequence TVKTHLTSLKTKFPAEQYYRFHEH [TSN] showed a protein stability index (treatment: DMSO) of 2.32 ± 0.25 and a protein stability index (treatment: MLN4924 1 uM, 8 h) of 2.44 ± 0.36.
For TVQGKKGVYMTDITPQGVAMRAGV [PDZK1], in that order: 3.12 ± 0.079 and 3.32 ± 0.25.
For TWESKNILAVSFAPLVQPSKNDNG [PCMTD1], in that order: 3.3 ± 0.41 and 3.6 ± 0.51.
TYTYTSRPRALPCQRSRYRDSLTQ [RSPH3]: the protein stability index is, setting by setting: (treatment: DMSO) 3.18 ± 0.23; (treatment: MLN4924 1 uM, 8 h) 3.18 ± 0.14.
The matching figures for VAAELLNHLLESMPLREGSSFQDL [HES6]: 3.11 ± 0.69 and 3.35 ± 0.79.
Take VADRWYSEIKNYNFQQPGFTSGTG [GLIPR2]: the protein stability index is 2.61 ± 0.097 (treatment: DMSO) and 2.93 ± 0.34 (treatment: MLN4924 1 uM, 8 h).
In the case of VAREDVRESCPPLGLETLKITDFQ [CPXM2], the protein stability index runs as follows: (treatment: DMSO) 3.96 ± 0.48; (treatment: MLN4924 1 uM, 8 h) 4.09 ± 0.33.
For VASLPLDQSDEGSSSQKEESPSTL [MAGEA10], in that order: 5.65 ± 0.14 and 5.64 ± 0.14.
VAVDFTWEEWQFLSPAQKDLYRDV [ZNF649]: the protein stability index came to 2.54 ± 0.73 (treatment: DMSO) and 2.64 ± 0.22 (treatment: MLN4924 1 uM, 8 h).
The matching figures for VCISTKTQCSEEDQCKINKQIYNL [FEM1B]: 3.22 ± 0.19 and 3.33 ± 0.25.
The matching figures for VDAAYANKVELQAKVESMDQEIKF [KRT71]: 4.88 ± 0.41 and 4.87 ± 0.21.
In the case of VDEKGEKVRPSHKRCIVILREIPE [LARP4], the protein stability index runs as follows: (treatment: DMSO) 2.9 ± 0.11; (treatment: MLN4924 1 uM, 8 h) 3.07 ± 0.037.
The matching figures for VDLDPTDGKLFPSDGFRDCKKGDP [ELF3]: 5.31 ± 0.1 and 5.2 ± 0.25.
For VFDCLKDGMRNKETLEGREKAFIA [MED27], in that order: 3.88 ± 0.28 and 3.91 ± 0.25.
For VFRWLAYSYASTHRLMTDARRRVC [CPXM2], in that order: 2.35 ± 0.32 and 2.54 ± 0.32.
As for VHSSPVSSPSVSGPRRLVSCLSSQ [SPACA3], the protein stability index by setting is: (treatment: DMSO) 3.38 ± 0.2; (treatment: MLN4924 1 uM, 8 h) 3.54 ± 0.18.
Turning to VITIKSESTFKNTEISFILGQEFD [FABP4], the protein stability index is, setting by setting: (treatment: DMSO) 2.23 ± 0.53; (treatment: MLN4924 1 uM, 8 h) 2.4 ± 0.078.
For VKQYLSTTLGPKLASQALTPPPGP [TFE3], in that order: 2.92 ± 0.19 and 2.93 ± 0.3.
For VKSHLLDYVMTTLLFSDKNVNSNL [TRIP13], in that order: 3.08 ± 0.36 and 2.79 ± 0.32.
For VLAIPRRLRVELECEEGELSFYDA [TRIM35], in that order: 2.96 ± 0.2 and 3.08 ± 0.23.
Turning to VLEWGAEGVAGKSGLEKEVQRLTS [FCHSD1], the protein stability index came out at 4.1 ± 0.16 (treatment: DMSO) and 4.09 ± 0.22 (treatment: MLN4924 1 uM, 8 h).
For VLMWLLTYVGALFNGLTLLLMAVV [RTN1], in that order: 2.51 ± 0.29 and 2.42 ± 0.13.
For VLRSWYEKNKHIFPASRWEPYDPE [FAM50A], in that order: 2.87 ± 0.078 and 3 ± 0.21.
The matching figures for VMFKIGDLGHVTRISSPQVEEGDS [WEE1]: 3.44 ± 0.23 and 3.45 ± 0.37.
Regarding VNDNAPEVLLASLANPVLESTPVG [PCDHGC5], the protein stability index was determined as 4.55 ± 0.18 (treatment: DMSO) and 4.51 ± 0.12 (treatment: MLN4924 1 uM, 8 h).
Regarding VNMVDVAKALNRPPTYPTKYFGCE [EIF5], the protein stability index is, setting by setting: (treatment: DMSO) 2.56 ± 0.19; (treatment: MLN4924 1 uM, 8 h) 2.45 ± 0.18.
The matching figures for VNRKSVKGNTALHDCAESGSLDIM [FEM1C]: 3.7 ± 0.28 and 3.46 ± 0.47.
The matching figures for VPQRTAGGDVPERELYIRWLEVAA [MYORG]: 2.62 ± 0.19 and 2.77 ± 0.3.
Regarding VPVLKPMDLMVEVSPRRIFANGHT [PPP2R2C], the protein stability index reads like this: (treatment: DMSO) 2.59 ± 0.48; (treatment: MLN4924 1 uM, 8 h) 2.75 ± 0.14.
The matching figures for VQILCHTYWEHWTSQGQVRMRLFG [RTP4]: 2.45 ± 0.87 and 2.52 ± 1.1.
The matching figures for VQTPPGGSEVVPVISPMYQLHKPL [IKZF1]: 3.77 ± 0.4 and 3.53 ± 0.23.
With VRDGPFGFSPIIGRFCGQQNPPVI [NETO1], the protein stability index (treatment: DMSO) was 2.27 ± 0.21 and the protein stability index (treatment: MLN4924 1 uM, 8 h) was 2.25 ± 0.19.
The matching figures for VRELVDKATNVVMNYSEIESKVRE [CLINT1]: 4 ± 0.38 and 3.8 ± 0.37.
For VRKEDMTYAVRKLDNTKFRSHEGE [SRSF1], the protein stability index came to 4.32 ± 0.13 (treatment: DMSO) and 4.13 ± 0.16 (treatment: MLN4924 1 uM, 8 h).
For VRLGSFRSPRAGAGALLRLPSERL [PRPH], in that order: 2.96 ± 0.16 and 3.23 ± 0.24.
For VRQAFQDQDDRRTWDGRPLTMAAT [GFOD1], in that order: 3.829 ± 0.031 and 3.65 ± 0.26.
VRRTDDTPVVLVGNKSDLKQLRQV [RIT1]: the protein stability index is, setting by setting: (treatment: DMSO) 3.56 ± 0.26; (treatment: MLN4924 1 uM, 8 h) 3.6 ± 0.23.
The matching figures for VRVALDYEAGQVTLHNAQTQEPIF [TRIM15]: 2.29 ± 0.33 and 2.51 ± 0.33.
As for VSGINGDIRAKKIASIADVCESMK [HNF4A], the protein stability index (treatment: DMSO) worked out at 3.52 ± 0.15 and the protein stability index (treatment: MLN4924 1 uM, 8 h) is 3.72 ± 0.31.
For VSLAVTLHRLKFLGFARRNWGNGK [GDAP1], in that order: 2.38 ± 0.41 and 2.33 ± 0.64.
For VSTFLSGVMLTWPDGLMYQKFRNQ [TMEM120A], in that order: 2.85 ± 0.82 and 2.36 ± 0.54.
For VTFREENTIAFRHLFLLGYSDGAD [MCOLN1], in that order: 2.38 ± 0.2 and 2.2 ± 0.11.
On to VTPKKSPPPKTNLTPGQSDSAKRE [FAN1], for which the protein stability index reads like this: (treatment: DMSO) 5.22 ± 0.33; (treatment: MLN4924 1 uM, 8 h) 5.35 ± 0.33.
In the case of VTVKDETATMKDLEAEVKDTTRVE [R3HDM1], the protein stability index was determined as 5.33 ± 0.17 (treatment: DMSO) and 5.56 ± 0.053 (treatment: MLN4924 1 uM, 8 h).
For VVAYLALAALSATISFRIYKSVLQ [RTN1], in that order: 2.7 ± 0.66 and 2.87 ± 0.43.
The matching figures for VVILPCQHNLCRKCASDIFQASNP [TRIM55]: 2.48 ± 0.34 and 2.38 ± 0.22.
The matching figures for VVKKIALREIRMLKQLKHPNLVNL [CDKL4]: 2.2 ± 0.76 and 2.63 ± 0.11.
As to VVTSAREHIYDLRSLENYHFVDEH [CLINT1], the protein stability index is 2.85 ± 0.51 (treatment: DMSO) and 3.15 ± 0.45 (treatment: MLN4924 1 uM, 8 h).
The matching figures for VWERPARSALWCLGLNAAFWFFAL [RETREG3]: 2.62 ± 0.77 and 2.61 ± 0.2.
For VYLHGDDHQDSDEFCRNTLCAPEV [FAF2], in that order: 4.13 ± 0.22 and 4.23 ± 0.15.
The matching figures for WCRDRLLGHREPSAHPVEVFSFDL [TMEM175]: 2.39 ± 0.3 and 2.25 ± 0.39.
Consider WDPSPRGCFTLPRSEPIRPIDPAA [DVL3], for which the protein stability index by setting is: (treatment: DMSO) 3.98 ± 0.23; (treatment: MLN4924 1 uM, 8 h) 3.77 ± 0.073.
The matching figures for WERKEGGGGISCVLQDGCVFEKAG [CPOX]: 3.82 ± 0.12 and 3.84 ± 0.24.
The matching figures for WNHIRLQRTAKGKPVLAKDSSNPY [AASDHPPT]: 2.9 ± 0.39 and 3.19 ± 0.3.
The matching figures for WRDSKGKDKEYAEIIRKQVSATKA [UBE2R2]: 3.9 ± 0.34 and 4.07 ± 0.46.
As for WRNLGVQQSQGWVHYMIHEPEPHI [CKS1B], the protein stability index reads like this: (treatment: DMSO) 2.24 ± 0.23; (treatment: MLN4924 1 uM, 8 h) 2.28 ± 0.18.
Consider WTNGSGLALCQRYYHRGHVDPAND [MCOLN1], for which the protein stability index is, setting by setting: (treatment: DMSO) 3.11 ± 0.12; (treatment: MLN4924 1 uM, 8 h) 3.12 ± 0.21.
For WVYSGRRGVHCWVCDESVRKLSSA [PRIM1], the protein stability index stood at 2.51 ± 0.84 (treatment: DMSO) and 3.04 ± 0.39 (treatment: MLN4924 1 uM, 8 h).
For YAAIVAVVAVHVVLALFVYVAWNE [VMA21], in that order: 2.08 ± 0.31 and 2.1 ± 0.11.
For YADFGPLNLAMVYRYCCKLNKKLK [CDC14A], in that order: 2.9 ± 0.58 and 2.56 ± 0.43.
The matching figures for YDWLFFSPDKDSIMNIEPAILVMH [INTS3]: 2.61 ± 0.52 and 2.16 ± 0.21.
In the case of YGQGRKIAEVCCTSIVYATEKKQT [KCTD10], the protein stability index is 2.83 ± 0.34 (treatment: DMSO) and 3.1 ± 0.21 (treatment: MLN4924 1 uM, 8 h).
For YHMFQREKVEVQLPELFHKIGVGA [KCNAB2], in that order: 2.52 ± 0.59 and 2.39 ± 0.45.
On to YHQGCLVNPTGNLPMWSNQTWNNS [NANOGP8], for which the protein stability index (treatment: DMSO) is 2.5 ± 0.36 and the protein stability index (treatment: MLN4924 1 uM, 8 h) amounted to 2.57 ± 0.066.
The matching figures for YKMDHRRRGIALIFNHERFFWHLT [CASP6]: 2.4 ± 0.72 and 2.2 ± 0.47.

The record behind these values is the supplement of paper PMC10567573.
